# The supplement of paper PMC11246515
# ± gives the standard deviation of the averaged measurements.
# Test: total protein half-life in vivo (active degradation + dilution); higher = more stable protein
# [1] = E. coli NCM3722 delta-clpP delta-lon delta-hslV, growth: N-lim chemostat, doubling time 6 h
# [2] = E. coli NCM3722 delta-clpP, growth: N-lim chemostat, doubling time 6 h
# [3] = E. coli NCM3722 delta-hslV, growth: N-lim chemostat, doubling time 6 h
# [4] = E. coli NCM3722 delta-lon, growth: N-lim chemostat, doubling time 6 h
# [5] = E. coli NCM3722 delta-smpB, growth: N-lim chemostat, doubling time 6 h
# [6] = wild type E. coli NCM3722, growth: C-lim chemostat, doubling time 3 h
# [7] = wild type E. coli NCM3722, growth: C-lim chemostat, doubling time 6 h
# [8] = wild type E. coli NCM3722, growth: C-lim chemostat, doubling time 12 h
# [9] = wild type E. coli NCM3722, growth: N-lim chemostat, doubling time 6 h
# [10] = wild type E. coli NCM3722, growth: N-lim chemostat, doubling time 12 h
# [11] = wild type E. coli NCM3722, growth: P-lim chemostat, doubling time 6 h
# [12] = wild type E. coli NCM3722, growth: P-lim chemostat, doubling time 12 h
sequence,measurement,setting,value
MLRVYHSNRLDVLEALMEFIVERERLDDPFEPEMILVQSTGMAQWLQMTLSQKFGIAANIDFPLPASFIWDMFVRVLPEIPKESAFNKQSMSWKLMTLLPQLLEREDFTLLRHYLTDDSDKRKLFQLSSKAADLFDQYLVYRPDWLAQWETGHLVEGLGEAQAWQAPLWKALVEYTHQLGQPRWHRANLYQRFIETLESATTCPPGLPSRVFICGISALPPVYLQALQALGKHIEIHLLFTNPCRYYWGDIKDPAYLAKLLTRQRRHSFEDRELPLFRDSENAGQLFNSDGEQDVGNPLLASWGKLGRDYIYLLSDLESSQELDAFVDVTPDNLLHNIQSDILELENRAVAGVNIEEFSRSDNKRPLDPLDSSITFHVCHSPQREVEVLHDRLLAMLEEDPTLTPRDIIVMVADIDSYSPFIQAVFGSAPADRYLPYAISDRRARQSHPVLEAFISLLSLPDSRFVSEDVLALLDVPVLAARFDITEEGLRYLRQWVNESGIRWGIDDDNVRELELPATGQHTWRFGLTRMLLGYAMESAQGEWQSVLPYDESSGLIAELVGHLASLLMQLNIWRRGLAQERPLEEWLPVCRDMLNAFFLPDAETEAAMTLIEQQWQAIIAEGLGAQYGDAVPLSLLRDELAQRLDQERISQRFLAGPVNICTLMPMRSIPFKVVCLLGMNDGVYPRQLAPLGFDLMSQKPKRGDRSRRDDDRYLFLEALISAQQKLYISYIGRSIQDNSERFPSVLVQELIDYIGQSHYLPGDEALNCDESEARVKAHLTCLHTRMPFDPQNYQPGERQSYAREWLPAASQAGKAHSEFVQPLPFTLPETVPLETLQRFWAHPVRAFFQMRLQVNFRTEDSEIPDTEPFILEGLSRYQINQQLLNALVEQDDAERLFRRFRAAGDLPYGAFGEIFWETQCQEMQQLADRVIACRQPGQSMEIDLACNGVQITGWLPQVQPDGLLRWRPSLLSVAQGMQLWLEHLVYCASGGNGESRLFLRKDGEWRFPPLAAEQALHYLSQLIEGYREGMSAPLLVLPESGGAWLKTCYDAQNDAMLDDDSTLQKARTKFLQAYEGNMMVRGEGDDIWYQRLWRQLTPETMEAIVEQSQRFLLPLFRFNQS,total protein half-life in vivo,[1],5.23 ± 0.17 h
same,total protein half-life in vivo,[2],4.28 ± 0.21 h
same,total protein half-life in vivo,[3],3.58 ± 0.068 h
same,total protein half-life in vivo,[4],4.13 ± 0.12 h
same,total protein half-life in vivo,[5],3.63 ± 0.41 h
same,total protein half-life in vivo,[6],3.44 ± 0.61 h
same,total protein half-life in vivo,[7],5.57 ± 0.32 h
same,total protein half-life in vivo,[8],13 ± 2.4 h
same,total protein half-life in vivo,[9],4.32 ± 0.95 h
same,total protein half-life in vivo,[10],6.21 ± 0.64 h
same,total protein half-life in vivo,[11],6.1 ± 0.47 h
same,total protein half-life in vivo,[12],11.3 ± 0.4 h
MLSKQIPLGIYEKALPAGECWLERLQLAKTLGFDFVEMSVDETDDRLSRLNWSREQRLALVNAIVETGVRVPSMCLSAHRRFPLGSEDDAVRAQGLEIMRKAIQFAQDVGIRVIQLAGYDVYYQEANNETRRRFRDGLKESVEMASRAQVTLAMEIMDYPLMSSISKALGYAHYLNNPWFQLYPDIGNLSAWDNDVQMELQAGIGHIVAVHVKDTKPGVFKNVPFGEGVVDFERCFETLKQSGYCGPYLIEMWSETAEDPAAEVAKARDWVKARMAKAGMVEAA,total protein half-life in vivo,[1],5.97 h
MLSPLLKRYTWNSAWLYYARIFIALCGTTAFPWWLGDVKLTIPLTLGMVAAALTDLDDRLAGRLRNLIITLFCFFIASASVELLFPWPWLFAIGLTLSTSGFILLGGLGQRYATIAFGALLIAIYTMLGTSLYEHWYQQPMYLLAGAVWYNVLTLIGHLLFPVRPLQDNLARCYEQLARYLELKSRMFDPDIEDQSQAPLYDLALANGLLMATLNQTKLSLLTRLRGDRGQRGTRRTLHYYFVAQDIHERASSSHIQYQTLREHFRHSDVLFRFQRLMSMQGQACQQLSRCILLRQPYQHDPHFERAFTHIDAALERMRDNGAPADLLKTLGFLLNNLRAIDAQLATIESEQAQALPHNNDENELADDSPHGLSDIWLRLSRHFTPESALFRHAVRMSLVLCFGYAIIQITGMHHGYWILLTSLFVCQPNYNATRHRLKLRIIGTLVGIAIGIPVLWFVPSLEGQLVLLVITGVLFFAFRNVQYAHATMFITLLVLLCFNLLGEGFEVALPRVIDTLIGCAIAWAAVSYIWPDWQFRNLPRMLERATEANCRYLDAILEQYHQGRDNRLAYRIARRDAHNRDAELASVVSNMSSEPNVTPQIREAAFRLLCLNHTFTSYISALGAHREQLTNPEILAFLDDAVCYVDDALHHQPADEERVNEALASLKQRMQQLEPRADSKEPLVVQQVGLLIALLPEIGRLQRQITQVPQETPVSA,total protein half-life in vivo,[1],5.89 h
same,total protein half-life in vivo,[2],5.69 h
same,total protein half-life in vivo,[5],5.95 ± 0.25 h
same,total protein half-life in vivo,[6],3.21 ± 0.3 h
same,total protein half-life in vivo,[8],> 16 h
same,total protein half-life in vivo,[9],5.03 ± 1.3 h
same,total protein half-life in vivo,[10],13.4 h
same,total protein half-life in vivo,[11],6.49 ± 0.13 h
MLSRHINYFLAVAEHGSFTRAASALHVSQPALSQQIRQLEESLGVPLFDRSGRTIRLTDAGEVWRQYASRALQELGAGKRAIHDVADLTRGSLRIAVTPTFTSYFIGPLMADFYARYPSITLQLQEMSQEKIEDMLCRDELDVGIAFAPVHSPELEAIPLLTESLALVVAQHHPLAVHEQVALSRLHDEKLVLLSAEFATREQIDHYCEKAGLHPQVVIEANSISAVLELIRRTSLSTLLPAAIATQHDGLKAISLAPPLLERTAVLLRRKNSWQTAAAKAFLHMALDKCAVVGGNESR,total protein half-life in vivo,[1],5.07 ± 0.31 h
same,total protein half-life in vivo,[4],6.84 h
same,total protein half-life in vivo,[6],2.02 ± 0.18 h
same,total protein half-life in vivo,[7],4.75 ± 0.2 h
same,total protein half-life in vivo,[8],6.21 h
same,total protein half-life in vivo,[10],12.6 h
same,total protein half-life in vivo,[11],5.54 h
same,total protein half-life in vivo,[12],5.16 ± 2 h
MLTKDLSITFCGVKFPNPFCLSSSPVGNCYEMCAKAYDTGWGGVVFKTIGFFIANEVSPRFDHLVKEDTGFIGFKNMEQIAEHPLEENLAALRRLKEDYPDKVLIASIMGENEQQWEELARLVQEAGADMIECNFSCPQMTSHAMGSDVGQSPELVEKYCRAVKRGSTLPMLAKMTPNIGDMCEVALAAKRGGADGIAAINTVKSITNIDLNQKIGMPIVNGKSSISGYSGKAVKPIALRFIQQMRTHPELRDFPISGIGGIETWEDAAEFLLLGAATLQVTTGIMQYGYRIVEDMASGLSHYLADQGFDSLQEMVGLANNNIVPAEDLDRSYIVYPRINLDKCVGCGRCYISCYDGGHQAMEWSEKTRTPHCNTEKCVGCLLCGHVCPVGCIELGEVKFKKGEKEHPVTL,total protein half-life in vivo,[1],4.6 h
same,total protein half-life in vivo,[6],0.869 ± 0.52 h
same,total protein half-life in vivo,[7],2.35 h
same,total protein half-life in vivo,[8],1.67 ± 0.23 h
MLTTLIYRSHIRDDEPVKKIEEMVSIANRRNMQSDVTGILLFNGSHFFQLLEGPEEQVKMIYRAICQDPRHYNIVELLCDYAPARRFGKAGMELFDLRLHERDDVLQAVFDKGTSKFQLTYDDRALQFFRTFVLATEQSTYFEIPAEDSWLFIADGSDKELDSCALSPTINDHFAFHPIVDPLSRRIIAFEAIVQKNEDSPSAIAVGQRKDGEIYTADLKSKALAFTMAHALELGDKMISINLLPMTLVNEPDAVSFLLNEIKANALVPEQIIVEFTESEVISRFDEFAEAIKSLKAAGISVAIDHFGAGFAGLLLLSRFQPDRIKISQELITNVHKSGPRQAIIQAIIKCCTSLEIQVSAMGVATPEEWMWLESAGIEMFQGDLFAKAKLNGIPSIAWPEKK,total protein half-life in vivo,[1],5.85 ± 0.18 h
same,total protein half-life in vivo,[4],1.79 ± 0.32 h
same,total protein half-life in vivo,[7],2.73 ± 2.2 h
same,total protein half-life in vivo,[11],0.443 h
MLTVKQIEAAKPKEKPYRLLDGNGLYLYVPVSGKKVWQLRYKIDGKEKILTVGKYPLMTLQEARDKAWTARKDISVGIDPVKAKKASSNNNSFSAIYKEWYEHKKQVWSVGYATELAKMFDDDILPIIGGLEIQDIEPMQLLEVIRRFEDRGAMERANKARRRCGEVFRYAIVTGRAKYNPAPDLADAMKGYRKKNFPFLPADQIPAFNKALATFSGSIVSLIATKVLRYTALRTKELRSMLWKNVDFENRIITIDASVMKGRKIHVVPMSDQVVELLTTLSSITKPVSEFVFAGRNDKKKPICENAVLLVIKQIGYEGLESGHGFRHEFSTIMNEHEWPADAIEVQLAHANGGSVRGIYNHAQYLDKRREMMQWWADWLDEKVE,total protein half-life in vivo,[1],6.44 ± 2.1 h
same,total protein half-life in vivo,[2],5.79 ± 0.58 h
same,total protein half-life in vivo,[3],5.96 ± 0.24 h
same,total protein half-life in vivo,[4],5.37 ± 0.098 h
same,total protein half-life in vivo,[5],5.02 ± 0.39 h
same,total protein half-life in vivo,[6],3.123 ± 0.013 h
same,total protein half-life in vivo,[7],5.53 ± 0.077 h
same,total protein half-life in vivo,[8],10.3 ± 0.26 h
same,total protein half-life in vivo,[9],5.503 ± 0.0091 h
same,total protein half-life in vivo,[11],5.34 ± 0.46 h
same,total protein half-life in vivo,[12],10.8 ± 1.7 h
